pEC50: −log10 of the molar value. One block for each substance: values may come before it. No end group written: not given here.
What was measured:
FPRL1 = target: T1, FPRL1 (Homo sapiens, UniProt P25090); test: Calcium flux in CHO-K1 cells co-transfected with FPRL1 and Gα16; type: cell-based; design: expressed in transfected cells; host or cells: CHO-K1 (ATCC-CCL-61), transient co-transfection; conditions: for ability to induce calcium flux, P33-derived peptides: 0.1, 1, 10, 100, 1000, 10000 nM; for calcium flux, P58 and derivatives: dose response
T1 sequence (P25090 1-351): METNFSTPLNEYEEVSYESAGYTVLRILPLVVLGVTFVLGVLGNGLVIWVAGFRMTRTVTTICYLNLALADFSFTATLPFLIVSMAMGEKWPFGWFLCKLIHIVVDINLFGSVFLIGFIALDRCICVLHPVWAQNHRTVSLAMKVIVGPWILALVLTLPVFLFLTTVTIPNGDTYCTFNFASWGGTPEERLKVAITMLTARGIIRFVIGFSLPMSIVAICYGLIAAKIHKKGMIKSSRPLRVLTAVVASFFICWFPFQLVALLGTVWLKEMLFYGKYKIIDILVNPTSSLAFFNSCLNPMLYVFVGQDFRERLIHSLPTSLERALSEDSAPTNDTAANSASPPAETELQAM
Description: (§1) The assay was carried out in CHO cells were transiently transfected with the GPCR of choice, by utilizing the promiscuous Gα16 to divert signaling to the Gq pathway, thus enabling readout of GPCR activation by testing for Calcium flux as described by Liu et al 2003 (Biomol Screen 8, 39-49).
(§2) All the peptides thus obtained were tested for their ability to change calcium flux in CHO—K1 cells (ATCC-CCL-61) transiently co-transfected with an expression vector containing the GPCR of choice and expression vector containing the Gα16 encoding cDNA. Expression constructs containing cDNA clones for MrgX1, MrgX2, Mas or FPRL1 were commercially obtained in one of the following expression vectors: pcDNA3.1, pCMV6, or MO2.
(§3) Transient transfections were performed using CHO—K1 cells as host cells. Cells (12 million) were plated into T75 flasks on the day preceding transfection. Cells were transfected with the appropriate GPCR expression vector and with a vector expressing Gα16 using a lipid-based reagent, MTI, according to the manufacturer's recommendation. Cells were transfected for 5 hours, then re-plated into 96-well dishes (60,000 cells per well) and grown overnight.
(§4) On the day of the experiment, cells were loaded with Fluo4-NW (Invitrogen) according to the manufacturer's recommendation. Plates were loaded into a FlexStation™ (Molecular Devices) plate reader and fluorescence was monitored. Seventeen seconds following initiation of reading, cells were stimulated with the indicated agonist/compound at final concentration of 1 μM. Each 96 well plate contained cells transfected with one GPCR expression vector and each of the examined peptides was tested in triplicate.
(§5) We defined a hit as a peptide which elicited a clear and distinct increase in intracellular calcium that is clearly visible and statistically significant upon examination of the calcium trace for at least two repeats. The criterion for statistical significance was a p-value lower than 0.001 in a t-test comparing the levels of calcium before and after peptide addition.
(§6) Based on dose response experiments, EC50 best fit values were calculated by non-linear regression of sigmoidal dose-response curves, using Prism version 4 (GraphPad Software Inc., San Diego, Calif.). The formulae for the sigmoidal dose-response curves was defined as Y=Bottom+(Top−Bottom)/(1+10^ (LogEC50−X)*HillSlope))
The ability of Peptides to change calcium flux was examined in CHO—K1 cells co-transfected with FPRL1 and Gal 6.

Mas receptor = target: T2, Mas receptor (Homo sapiens, UniProt P04201); test: Calcium flux in CHO-K1 cells co-transfected with Mas receptor and Gα16; type: cell-based; conditions: for ability to induce calcium flux, P33 monomer, dimer and derivatives compared: 0.1, 1, 10, 100, 1000 and 10000 nM; for ability to induce calcium flux, P61-related peptides compared: dose response; for pEC50: doses 10-3000 nM, highest response not reached
T2 construct: expressed in transfected cells; host or cells: CHO-K1 (ATCC-CCL-61), transient co-transfection
T2 sequence (P04201 1-325): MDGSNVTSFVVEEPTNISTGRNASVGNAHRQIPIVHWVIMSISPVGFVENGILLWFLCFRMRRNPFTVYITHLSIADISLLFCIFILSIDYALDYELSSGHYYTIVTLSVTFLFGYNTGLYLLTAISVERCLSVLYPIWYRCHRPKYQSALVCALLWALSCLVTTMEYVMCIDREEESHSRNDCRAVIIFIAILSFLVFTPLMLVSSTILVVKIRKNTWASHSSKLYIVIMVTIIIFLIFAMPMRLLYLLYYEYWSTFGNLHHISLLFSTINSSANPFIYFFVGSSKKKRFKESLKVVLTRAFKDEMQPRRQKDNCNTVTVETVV
Description: as §1, §2, §3, §4, §5, §6
The ability of Peptides to change calcium flux was examined in CHO—K1 cells co-transfected with Mas receptor and Gα16.

[1] = tested on: aortic rings from Wistar rat; test: Vasorelaxant activity in phenylephrine pre-contracted aortic rings; conditions: for vasodilator effect in the presence of L-NAME: 100 μM L-NAME, NO synthase inhibitor; for vasodilator effect in the absence of functional endothelium: endothelium-denuded vessels; for Maximal values for the relaxant effect (Emax): mean±SEM
Source text: Male Wistar rats of the age of 13-14 weeks (body weight: 250 to 300 g) were used. The rats were exposed to light-dark cycle of 12 hs (day—06:00 to 18:00; night—18:00 to 06:00) controlled by timer. Rats were killed by decapitation and exsanguination and tissues were rapidly removed.
Rings (3-4 mm) from the descending thoracic aorta, free of adipose and connective tissue, were set up in gassed (95% O2 and 5% CO2) Krebs-Henseleit solution (mmol/L): NaCl 110.8, KCl 5.9, NaHCO3 25.0, MgSO4 1.07, CaCl2 2.49, NaH2PO4 2.33 and glucose 11.51, at 37° C., under a tension of 1.0 g, for 1 hour to equilibrate. The presence of functional endothelium was assessed by the ability of Acetylcholine (1 μM) to induce more than 70% relaxation of vessels pre-contracted with phenylephrine (0.3 μM) (Lemos et al., 2005). When necessary, the endothelium was removed by rubbing the intimal surface with a wooden stick. Mechanical activity, recorded isometrically by a force transducer (Panlab, model number TR1210, Spain), was fed to an amplifier-recorder (Powerlab 4/20, ADInstruments, Inc.) and to a personal computer equipped with an analogue-to-digital converter board (AD16JR; World Precision Instruments, Inc.), using CVMS data acquisition/recording software (World Precision Instruments, Inc.).
The vasorelaxant activity of peptides —P61_S (SEQ ID NO:10), P61 (SEQ ID NO.9)-dimer (P61_D), P33_V (SEQ ID NO:7) and P33 (SEQ ID NO:6)-dimer (P33_D) were measured in vessels (N=5-8) with or without functional endothelium pre-contracted to the same tension level (approximately 1.5 g of tension) induced by submaximal concentrations of phenylephrine (0.01 μM). For comparison, the effect of Ang-(1-7) was also tested (N=4)
P61_S (SEQ ID NO:10), P61 (SEQ ID NO9)-dimer (P61_D), P33_V (SEQ ID NO:7) or P33 (SEQ ID NO:6)-dimer (P33_D) were added in increasing cumulative concentrations (0.0001 to 1 μM) once the response to phenylephrine had stabilized (FIG. 28). In order to verify the participation of endothelium-derived products in the relaxant effect of peptides, experiments were performed in the presence of 100 μM N′-Nitro-L-Arginine Methyl Ester-[L-NAME]—a nonselective inhibitor of nitric oxide synthase. In experiments performed in the presence of L-NAME, vessels were pre-contracted with 0.03 μM of phenylephrine, to achieve the same tension level as the others. L-NAME was added to the bath 20 min prior to the addition of phenylephrine.
Results are presented as mean±SEM. Two-way analysis of variance (ANOVA) with Bonferroni multiple comparison post-test was used to compare concentration response curves obtained in aortic rings. The vasodilator effect of P61_S (SEQ ID NO:10), P61 (SEQ ID N09)-dimer (P61_D), P33_V (SEQ ID NO:7), P33 (SEQ ID NO:6)-dimer (P33_D) and Ang-(1-7) were expressed as percentage decrease in maximal contraction induced by phenylephrine. All statistical analyses were considered significant when p<0.05.

[2] = vessels with endothelium, 0.0001 to 1 μM cumulative

Substance: AVLFPAAHRP (listed as Homo sapiens) [P33—5]
ability to induce calcium flux, P33-derived peptides (FPRL1): failed to induce calcium flux
ability to induce calcium flux, P33 monomer, dimer and derivatives compared (Mas receptor): no activity

Substance: Angiotensin 1-7 [Ang-(1-7), reference compound]
vasodilator effect in the presence of L-NAME [1]: completely inhibited
vasodilator effect in the absence of functional endothelium [1]: abolished
Maximal values for the relaxant effect (Emax) [1, 2]: 15.64±1.91%
Maximal values for the relaxant effect (Emax) ([1]; vessels without endothelium): 2.82±3.11%
Ca response (Mas receptor; dose response experiment, data not shown): did not induce Ca response

Substance: HRWSRAVLFPAAHRP (listed as Homo sapiens) [P33—9]
ability to induce calcium flux, P33-derived peptides (FPRL1): failed to induce calcium flux
ability to induce calcium flux, P33 monomer, dimer and derivatives compared (Mas receptor): induced calcium flux, albeit at a somewhat lower degree compared to P33_V

Substance: RWSRAVLFPAAHRP (listed as Homo sapiens) [P33—8]
ability to induce calcium flux, P33-derived peptides (FPRL1): failed to induce calcium flux
ability to induce calcium flux, P33 monomer, dimer and derivatives compared (Mas receptor): induced calcium flux, albeit at a somewhat lower degree compared to P33_V

Substance: SMCHRWSRAVLFPAAHRP [P33_dimer] (also: dimer via cysteine; listed as Homo sapiens) [Peptide P33_dimer]
vasodilator effect in the presence of L-NAME [1]: completely inhibited
vasodilator effect in the absence of functional endothelium [1]: completely inhibited
Maximal values for the relaxant effect (Emax) [1, 2]: 17.78±3.43%
ability to induce calcium flux, P33-derived peptides (FPRL1): inactive
ability to induce calcium flux, P33 monomer, dimer and derivatives compared (Mas receptor): superior to the monomeric peptides

Substance: TIPMFVPESTS (listed as Homo sapiens) [P58—6]
calcium flux, P58 and derivatives (FPRL1): did not induce calcium flux

Substance: TIPMFVPESTSKLQ (listed as Homo sapiens) [P58—7]
calcium flux, P58 and derivatives (FPRL1): did not induce calcium flux

Substance: TIPMFVPESTSTLQ (listed as Homo sapiens) [P58—12]
calcium flux, P58 and derivatives (FPRL1): did not induce calcium flux

Substance: TIPMFVPESTSTLQKFTSWFM-amide (TIPMFVPESTSTLQKFTSWFM-NH2; listed as Homo sapiens) [P58—10]
calcium flux, P58 and derivatives (FPRL1): elicited calcium flux

Substance: WSRAVLFPAAHRP (listed as Homo sapiens) [P33—10]
ability to induce calcium flux, P33-derived peptides (FPRL1): failed to induce calcium flux
ability to induce calcium flux, P33 monomer, dimer and derivatives compared (Mas receptor): induced calcium flux, albeit at a somewhat lower degree compared to P33_V

More lines, now with the values ahead:

ability to induce calcium flux, P61-related peptides compared (Mas receptor): as potent as P61_S
Substance: FAFLGYSIYLNRKRRGDPAF (listed as Homo sapiens) [P61—11S]

pEC50 (Mas receptor): ≤ 6.30
Substance: FLGYSIYLNRKRRGDPAFKRRLRD [Peptide P61_S]

ability to induce calcium flux, P61-related peptides compared (Mas receptor): somewhat weaker
Substance: IYLNRKRRGDPAFKRRLRD (listed as Homo sapiens) [P61—4]

ability to induce calcium flux, P33-derived peptides (FPRL1): similarly potent
ability to induce calcium flux, P33 monomer, dimer and derivatives compared (Mas receptor): equally potent
Substance: SMCHRWSRAVLFPAAHRP [Peptide P33_mono]

pEC50 (Mas receptor): ≤ 6.00
Substance: SMVHRWSRAVLFPAAHRP [Peptide P33_V, SMVHRWSRAVLFPAAHRP]
